From the nanobody polyreactivity screen of Harvey et al. (2022)

Test: yeast display, Sf9 membrane polyspecificity reagent, FACS + sequencing; frameworks hold sequencing errors
Outline: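 Nanobodies from a synthetic yeast display library (Saccharomyces cerevisiae BJ5465), induced 36–48 hours with galactose, were stained 1 hour at 4 °C with 10% biotinylated, detergent-solubilized Sf9 membrane reagent, enriched on streptavidin microbeads, then FACS-sorted. Anti-HA (expression) and streptavidin (reagent binding) fluorescence set low and high (top ~1%) gates. Polyreactivity labels come from the gate of origin. Genes were colony-PCR amplified, MiSeq 2 × 250 sequenced and filtered by CDR length.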

Row | Sequence | polyreactivity (PSR sort gate)
1 | QVHLVESGGGLVQAGGSLRISGAASGSTFGTYAMGWYRQAPGKERELVAAITSGGSTDYADSVKGRFTISRDNAKNTVYLQMNSLKPEDTAVYYCTARGYGYLGRKGGYSYGYYYWGQGNQVTVSS | low polyreactivity
2 | QVHLVESGGGLVQAGGSLRLICAASGFIFRQYAMGWYRQAPGKERELVAAISYRGASTYYADSVKGRFTISRDNAKNTVYLQMNSLKPEDTAVYYCADRYYNPWARVSGYDYWGQGTQVTVSS | high polyreactivity
3 | QVHLVESGGGLVQAGGSLRLRCAASGIIFRRYAMGWYRQAPGKESEFVAAIRYTGGGTYYADSVKGRFTISRDNAKNTVYLQMNSLQPEDTAVYYCAASSRVSKSHLYGYWGQGTQVTVSS | high polyreactivity
4 | QVHLVESGGGLVQAGGSLRLRCAASGSIFLLYAMGWYRQPPGKGRELVAAITYSGGRTYADSVKGRFTISRDNAKNTGYLQMISLKPEDTAVNYCATDAPAPKYDYWGQGTQVTVSS | low polyreactivity
5 | QVHLVESGGGLVQAGGSLRLRCDASGSIFKPYARGWYRQAPGKERELVAGITAGGASTYYADSVKGRFTISRDNAKNTVYLQMNSLKPEDTAVYYCAAGDYQSGVRYDYWGQGTQVTVSS | low polyreactivity
6 | QVHLVESGGGLVQAGGSLRLSCAAAGSTSARYAMGWYRQPPGKERELVATITRSGTTKYADSVKGRFTISRDNAKNTVYLQMNSLKPEDTAVYYCNTDTYFPLYDYWGQGTQVTVSS | low polyreactivity
7 | QVHLVESGGGLVQAGGSLRLSCAACGLTFTHYTMGWYRQAPGKERELVAAITTSGGSTYYADSLKGRFTISRDNAKKTVYLQLNSLKPEDTPVYYCAADLGGNSRLDYWGQGTQETVSS | high polyreactivity
8 | QVHLVESGGGLVQAGGSLRLSCAACGRTFRSNALGWYSQAPGTEREFVAALSGRGGITYFADSVTGRFSISRDNAKNTVYLQMNSLKPEDTAVDYCNRDVKFHDYVYVTGINSPGYNYWGQGTQVTVSS | low polyreactivity
9 | QVHLVESGGGLVQAGGSLRLSCAASAFTFSQYAMGWYRQAPGKERELVAVISINGGSTYYADSVKGRFTISRDNAKNTVYLQMNSLKPEDTAVYYCAADDTDSEYYGYDYWGQGTQVTVSS | low polyreactivity
10 | QVHLVESGGGLVQAGGSLRLSCAASGFIFAGYTMGWYRQAPRKERELVAAINSGGSTKYADSVKGRFTISRDNAKNTVYLQMNSLKPEDTAVSYCNADYGWYFLFDYWGQGTQVTVSS | low polyreactivity
11 | QVHLVESGGGLVQAGGSLRLSCAASGFIFDYYAMGWYRQAPGKERELVAAITGSGGGTYYADSVKGRFTISRDNAKNTVYLQMNSLKPEDSAVYYCNAYVPYPYSSEVQDYDYWGQCTQVTVSS | high polyreactivity
12 | QVHLVESGGGLVQAGGSLRLSCAASGFIFGRNAMGWYRQAPGKEREFVAALTRIGGNTYYADSVKGRFTISRDNAKNTVYLQMNSLKPEDTAVYYCAARLSYFHAYGFYWGQGTQVTVSS | high polyreactivity
13 | QVHLVESGGGLVQAGGSLRLSCAASGFIFLPYAMGSYRQAPGKERELVAAITRGGRTYYADSVKGRFTISRDNAKNTVYLQMNSLKPEDTAVYYCAAVVWAPFYEFYYWGQGTQVTVSS | low polyreactivity
14 | QVHLVESGGGLVQAGGSLRLSCAASGFIFNVYAMGWYRQAPGKERELVAAISFSGTSTYYADSVKGRFTISRDNAKNTVYLQMNSLKPEDTAVYYCAARYWSRDQWPRSLYYWGQGTQVTVSS | high polyreactivity
15 | QVHLVESGGGLVQAGGSLRLSCAASGFIFPAYVMGWYRQAPGKERELVAVIGSGGSTSYADSVKGRFTISRDNAKNTVYLQMNSLKPEDTAVYYCTADPTWFGYVYYQYDYWGQGTKVTVSS | low polyreactivity
16 | QVHLVESGGGLVQAGGSLRLSCAASGFIFRRYAMGWYRQAPGKERELVAAITSSGTSTYYADSVKGRFTISRDNAKNTVYLQMNSLKPEDAAVYFCNRDNYVRWIREDFDYWGQGTQVTVSS | high polyreactivity
17 | QVHLVESGGGLVQAGGSLRLSCAASGFIYWAYAMGWYRQAPGKERELVAGITRSGGSTYYADSVKGRFTISRDNAKNTVYLQMNSLKPEDTAVYYCAADFRYNGGYWGQGTQVTVSS | high polyreactivity
18 | QVHLVESGGGLVQAGGSLRLSCAASGFTCGYNAMGWYRQAPGKETELVATICGGGRTKYADSVKGRFTLSRDNAKNTVYLQMNSLKPEDTAVYYCNVVQTYYRGSYIYIKYGYWGQGTQVTVSS | high polyreactivity
19 | QVHLVESGGGLVQAGGSLRLSCAASGFTFDQNAMGWYRQAPGKERELVAAISIGGSTYYADSVKGRFTISRDNAKNTVYLQMNSLKPEDTAVYYCATRNIYFSSVDYWGQGTQVTVSS | high polyreactivity
20 | QVHLVESGGGLVQAGGSLRLSCAASGFTFPLYARGLYRQAPGKERELVAVINSDGGRTYYADSVKGRFTISRDNAKYTVYLQMNSLKPEDTAVYYCATRATWYYWGQGTQVTVSS | high polyreactivity
21 | QVHLVESGGGLVQAGGSLRLSCAASGFTFRFYAMGCYIQAPGKERELVAAISSTGIRTYYADSLKGRFTISRDNSKNTDYLQMNSLKPEDTAVYYCAKLHRDSILDYWGQGTQVTVSS | high polyreactivity
22 | QVHLVESGGGLVQAGGSLRLSCAASGFTFRYYTMGWYRQAPGKERELVARITWSGGITYYADSVKGRFTISRDNAKNTVYLQMNSLKPEDTAVYYCNAERRWAAYDYWGQGTQVTVSS | high polyreactivity

Row | Sequence | polyreactivity (PSR sort gate)
23 | QVHLVESGGGLVQAGGSLRLSCAASGFTFVSYAMGWYRQAPGKESELVAAISWSSARTYYADSVKGRFTISRHNAKNTVYLQRNSLKPEDTAVYYCNAVRGFSSSRGGYNYWGQGTQVTVSS | high polyreactivity
24 | QVHLVESGGGLVQAGGSLRLSCAASGFTFVYYTMGWYRQAPGKERELVAAITYGGNTYYADSVKGRFTISRDNAKNTVYLQMNSLKPEDTAVYYCAARYISSYDWGQGTEVTVSS | high polyreactivity
25 | QVHLVESGGGLVQAGGSLRLSCAASGFTFYYYAMGWYRQAPGKEREFVAAITRGGGSTYYADSVKGRFTISRDKAKNSVYLQMNSLKPEDTAVYYCAADPQSTIRDYWGQGTQVTVSS | high polyreactivity
26 | QVHLVESGGGLVQAGGSLRLSCAASGFTLRHNTIGGYRQSPGKERELVAAISIGGRTYYADSVKARFTISRDNAKNTGYLQMNSLKPEDTAVYYCGKLDRGQSPRYDFWGQGTQVSVSS | high polyreactivity
27 | QVHLVESGGGLVQAGGSLRLSCAASGFTYYKYAMGWYRQAPGKEREFVDAITPSGGSTYYADSVKGRFTISRDNAKNTVYLQMNSLKPEDTAVYYCAAYYGTSRWAKMCYWGQGTQVTVSS | high polyreactivity
28 | QVHLVESGGGLVQAGGSLRLSCAASGGIFLDNAMGWYRQAPGKERELVASIRTRTYYADSVKGRFTISRDNAKNTVYLQMNSLKPEDTAVYYCAAAHRRWDGDYNYWGQGTQVTVSS | high polyreactivity
29 | QVHLVESGGGLVQAGGSLRLSCAASGGIFLENAMGWYRQAPGKERELVAAISYNGGRTYYADSVKGRFTISRDNAKNTVYLQMNSLKPEDTAVYYCNAASPYYDSWGQGTQVTVSS | high polyreactivity
30 | QVHLVESGGGLVQAGGSLRLSCAASGGTFGYYAMGWYRPAPGKERELVAAINARGDSTYYADSVKGRFTISRDNAKNTVYFLMNSLKPEDTAVYYCNTGIALFGYKYHYWGQGTQVTVSS | low polyreactivity
31 | QVHLVESGGGLVQAGGSLRLSCAASGGTFQDYTMGWYRQAPGKEREFVAAISLSGTRTYYADSVKGRFTISRDNAKNTVYFQMNSLKPEDSAVYYCSTSGPQYYSRNFDYWGQATQVTVSS | low polyreactivity
32 | QVHLVESGGGLVQAGGSLRLSCAASGGTFYYNTMGWYRQAPGKERELVAAITSGTSTNYADSVKGRFTISRDNAKNTVYLQMNSLIPEDTAGYYCAADPDADDPRRGYDYWGQGTQVTVSS | low polyreactivity
33 | QVHLVESGGGLVQAGGSLRLSCAASGGTLYANAKGWYRQAPGKERELVATITSSSGSTSYADSVKGRFSISRDNAKNTVYLQKNSLKPEDTAVYYCAKDSHAQGPYRYIHYHHTGDYWGQGTQVTVSS | low polyreactivity
34 | QVHLVESGGGLVQAGGSLRLSCAASGIIFDHYAMVWYRPAPGKERELVAAISTGGGNTYYADSLKGRFTISRDNAKNTVYLQMNSLKPEDTAVYYCNADVLWGRRWGDYYGYDYWGQGTQVTVSS | low polyreactivity
35 | QVHLVESGGGLVQAGGSLRLSCAASGIIFEYNAMGWYRQAPGKERELVAAITSTDNTNYADSVKGRFTISRDNAKKTVYLQMNILIPEDTAVYYCNTDYWLSVVYAMDYWGQGTQVTVSS | low polyreactivity
36 | QVHLVESGGGLVQAGGSLRLSCAASGIIFGRFTMGWYRQAPGKERELVAAITSSGITYYADSLKGRFTISRDNAKNTVYLQMNSLKPEDTAVSYCNADYSIPGYYWPFDYWGQGTQVTVSS | low polyreactivity
37 | QVHLVESGGGLVQAGGSLRLSCAASGIIFVLYTMGWYRQAPGKERELVATINWGGGNTYYADSLKGRFTISRDNAKNTVYLQMNSLKPEDTAVYYCAAAYTWYGYSQAYYYWGQGTQVTVSS | low polyreactivity
38 | QVHLVESGGGLVQAGGSLRLSCAASGIILYGYAMGWYRQAPGKERELVAAITKSGGSTYYADSVKGRFTISRDNAKNTVYLLMNSLKPEDTAVYYCAAKLWGIWYYGYRPDDYWGQGTQVTVSS | low polyreactivity
39 | QVHLVESGGGLVQAGGSLRLSCAASGIPLYFYAMGWYRQAPGKERELVAAISRGGRTYYADSVKGRFTISRDNAKYTVYLQMNSLKPEDTAVYYCAARYTSEYSAFDYWGQGTQVTVSS | low polyreactivity
40 | QVHLVESGGGLVQAGGSLRLSCAASGITFGYYAMGWYRQAPGKERELVAAISNSGRTYYADSVKGRFTISRDNAKNTVYLQMNSLKPEDTAVYYCADVDAYYDFYYWGQGTQVTVSS | low polyreactivity
41 | QVHLVESGGGLVQAGGSLRLSCAASGITFNSYAMGWYRQAPGKERDLDASISWIGGSTYYADSVKGRFTISRDNAKNTVYLQINSLKPDDTAVYYCAVDKGTDYYYDVDYWGQGTQVTVSS | low polyreactivity
42 | QVHLVESGGGLVQAGGSLRLSCAASGITFRFNAMGLSRQAPGKEMEFVAAITYSGDSTYYADSLKVRFTISRDNAKNSVYLHLKSVKPEDTAVYYCAAEYYAISRRIFYYWGQGTQVTVSS | low polyreactivity
43 | QVHLVESGGGLVQAGGSLRLSCAASGITFRYYAMGWYRQAPGKERELVAVISTSGGSTYYADSVKGRFTISRDNAKNTVYLQMNSLKPEDTAVYYCAVVWPYSERYYYWGQGTQVTVSS | high polyreactivity
